Tested on: K4 kissing-loop RNA reporter
Assay: apparent KD of K4 kissing-loop reporter; higher = weaker reporter binding
Conditions: Eterna round: R107
Experimental: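 RNA-MaP round R107: designed RNA switches with theophylline, tryptophan, arginine or FMN aptamers are transcribed on-chip within common flanks. They are titrated with a labelled K4 kissing-loop RNA reporter in RNA-MaP buffer (100 mM Tris pH 7.5, 80 mM KCl, 4 mM MgCl2), without ligand or with the indicated ligand. Median apparent KD per design.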

[1] = input ligand: theophylline 20 uM
[2] = input ligand: tryptophan 2.4 mM
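Further: bound reporter read as fluorescence of individual clusters on recovered sequencing chips by microscopy, with normalized cluster intensities fitted with a binding model.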

Row | Sequence | apparent KD of K4 kissing-loop reporter (input ligand: FMN 200 uM) | apparent KD of K4 kissing-loop reporter (input ligand: arginine 13.2 mM) | apparent KD of K4 kissing-loop reporter (input ligand: none) | apparent KD of K4 kissing-loop reporter [1] | apparent KD of K4 kissing-loop reporter [2]
1 | GCCCACAUUAGUGAUACCAGUGGGCACUCACCAGUUCAGUGAUGUUGGACGCAGUGUGGUCACCCUUGGCAGCACCGAUGCCCUU [theeternabot_sameState_KL_Theo_B_32] | 129 nM | 128 nM | 122 nM | 122 nM | 129 nM
2 | ACGUAGUUCUAGGAUACCAGCCAAAUAGCCAGGACGAGAGUCCUGGCUGCCAGUGAUGUUGGCCCUUGGCAGCCUAGAUCUUCUU [zmodel 1] | 161 nM | 136 nM | 144 nM | 218 nM | 149 nM
3 | GAGGUUUACGUAGGAUAUCGGUAAUGAGUAGAUGGAGUGAUGUUCCGAAAUUGAAUAGGAGAUGGGCGAGAAGGGCGGAUUAAGC [whbob_SS_FMNB__2th204] | 82.1 nM | 91.6 nM | 77.4 nM | 110 nM | 58.1 nM
4 | UAAGUAAGGGAUGAUACCAGAGAGUGAUGUUCUCAAGCGCUAUAGGAUAGCCUUAUCCACCUCCCUUGGCAGCAUACCCACUGGG [theeternabot_exclusion_KL_Theo_B_13] | 333 nM | 311 nM | 355 nM | 346 nM | 340 nM
5 | GCCGUACGCAUGGAUACCAGCUAUUAGAGUGAUGUUCUAUGGCCCUGCCAAUGGAGCUGUAGCCCUUGGCAGCCAUGCGUACGGC | 112 nM | 95.2 nM | 109 nM | 105 nM | 104 nM
6 | AUGCUUUUAAUAACACUAUAUACAACUGAAGGAGCGACAAUAAAGUCAGGUAGGUCGCAGAAUAAAUGAGUGAUGUUCAUUUUUA [JR_ExcArginiA_Sub009] | 82.2 nM | 130 nM | 92.2 nM | 119 nM | 63.9 nM
7 | UCUGCUGUAUAUGAUACCAGCAGUGAGAGACGAGAAGUAUAGUGAUGUUAUAUGAGAGAAUGCCCUUGGCAGCGUGUGCGUGUGG [SSTheophylB.aA] | 96.3 nM | 94.3 nM | 74.4 nM | 102 nM | 64.8 nM
8 | UCACUUAAAAGAAAUAGAAAUUCUAGAGAUACCAGCGACACUCUUCGCCCUUGGCAGCUCAAGUGGGACCCAGUGAUGUUGGGCG [Xeceteza] | 426 nM | 289 nM | 413 nM | 269 nM | 324 nM
9 | CCAUCGCUAUUCGAUACCAGUCAAUAGGUCUUUGGCCUAUUAAUGGAGUGAUGUUCCUUAGACCCUUGGCAGCGAAUAGUGAUGG [Theophylline B K4 12] | 258 nM | 215 nM | 260 nM | 166 nM | 241 nM
10 | UCAGUUCACGGGCGCCGCAAACCGCAGGAUACCAGUCACAUCGCUGACCCUUGGCAGCCUAUGGACUAGUGAUGUUAGUCCAGGA [theeternabot_sameState_KL_Theo_A_37] | 98.5 nM | 95.2 nM | 128 nM | 117 nM | 115 nM
11 | UUAGCAGUAUACUGCAAGACCUAUACUGAUACCAGAGUCAAUUGACUCCCUUGGCAGCGGAUCGAGUGAUGUUCGUAAGGUCAUU [AK4.2 SS Theophylline A] | 743 nM | 647 nM | 955 nM | 792 nM | 685 nM
12 | CAGCGGAGUGAUGUUCUGCUUACUCCGGAUACCAGCUUCGCCAGAGGCCCUUGGCAGCCGGGCGGCUCAGUGAUGUUGGGUUGCU [Same State Theophylline A GF 16] | 934 nM | 532 nM | 870 nM | 979 nM | 765 nM
13 | GAUUGUGAUGGAAACAUCGCAAUCUCUGAAGGAGCGCGUGAAAACGCAGGUAGGUCGCAGGACGACAAAGACAGUGAUGUUGUCG [Ex Arginine A K4 2] | 446 nM | 424 nM | 554 nM | 504 nM | 416 nM
14 | UUGUUUGGUUGAGAGGUUGGGCGAGAUGAUACCAGUAGAGAAGAAUACCCUUGGCAGCAUAAGAAAGAUAUAGUGAUGUUGUAUA [SSTheophA.O] | 538 nM | 356 nM | 490 nM | 529 nM | 475 nM
15 | GGCUUGCCAGUGAUGUUGGCAUAUUCUGAAGGAGCGCGUGAAAACGCAGGUAGGUCGCAGAACCUUGCCAACUAUUUUAGUUGCC [Ex Arginine A K4 26] | 242 nM | 210 nM | 237 nM | 334 nM | 210 nM
16 | AGAACUGUCUGAGAUACCAGCCAAGGAGUGAUGUUCCGGCUCGACGAAACGUCGAGCAAUGGCCCUUGGCAGCUCAGACAGUUCA [Omei KL Theo B SS A v3] | 387 nM | 80.9 nM | 182 nM | 398 nM | 242 nM
17 | UUGGAAAGACCAGAACAGGGCCUUAUCUGGGAGGAUAUGCUGGAGGGCAGAAGGCCCAGUGAUGUUGGGCCUUGUGCUCGUUCUA [Ainanti] | 165 nM | 125 nM | 139 nM | 137 nM | 145 nM
18 | UAAGAACAGUCGGCCGCCACUUGAACUACAGAAGUAGGUAUAGCACCGUGAGUGAUGUUCACUGAAAGGACCGGGACUUGCUCCG [theeternabot_sameState_KL_Trp_B_30] | 476 nM | 310 nM | 399 nM | 430 nM | 574 nM
19 | GGAUAGGAUAGAGGAUAUGGUAUAUGCAAGAAUAACUUAUCGUGUAAAUCCAUAGGGAGUGAUGUUCCAGAAGGCUGUCCUAUCG [MatMod 11 - Jieux - Exclusion - FMN B] | 921 nM | 244 nM | 308 nM | 324 nM | 229 nM
20 | UGUACCGAGUAAGGAUAUGUCGUCGAAAGACGAAAUGGAGUGAUGUUCCUUAAACUGCGAAAGCAGACAGAAGGUACUUGGUACU [FmnBS 29 A11+U75] | 139 nM | 217 nM | 233 nM | 224 nM | 203 nM
21 | AAGGCCACGAGAAGGAGCGUGUUGUGGAGUGAUGUUCCAUUGUAGACCUAAGGUCUGCAAGCACAGGUAGGUCGCUCGUGGUCAA [whbob_SS_Arginine_B_2t149] | 127 nM | 123 nM | 139 nM | 138 nM | 127 nM
